The record followed here is patent US20110269227A1 (SHARP, published 2011).

Ends that are not written are not given here. * marks the point of attachment. Biotin = O=C1N[C@H]2[C@H](CS[C@H]2CCCCC(=O)*)N1; PEG (amino-terminated) = not defined here; cellulose membrane = not defined here

The target in experiment [1] is T1, human adiponectin (R&D Systems) (human, UniProt Q15848 19-244).
T1 construct: Bought protein; also called ACRP30; GBP28
T1 sequence (looked up): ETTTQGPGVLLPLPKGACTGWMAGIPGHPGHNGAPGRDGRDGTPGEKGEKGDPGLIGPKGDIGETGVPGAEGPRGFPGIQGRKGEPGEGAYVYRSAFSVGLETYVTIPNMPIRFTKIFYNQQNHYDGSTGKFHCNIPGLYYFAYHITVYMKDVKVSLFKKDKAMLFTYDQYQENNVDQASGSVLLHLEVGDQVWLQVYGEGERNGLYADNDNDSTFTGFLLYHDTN
The experiment is described as follows: peptide spot on cellulose membrane, sandwich enzyme immunoassay with HRP-tagged anti-adiponectin antibody, fluorescence. Here is the method: First, a cellulose membrane was soaked in ethanol. Then, the cellulose membrane was continuously washed with phosphate buffered saline (PBS) (pH 7.4) so that ethanol contained in the cellulose membrane was replaced with PBS. In order that nonspecific binding is inhibited, the cellulose membrane was incubated overnight in a blocking solution (PBS containing 1% milk powder).
Then, the cellulose membrane was incubated for 1 hour in a blocking solution (PBS containing 1% milk powder) which contains 0.25 μg/mL human adiponectin (R&D Systems). Then, the cellulose membrane was washed with PBST (PBS containing 0.1% (v/v) Tween 20). Then, the cellulose membrane was incubated for 1 hour in a blocking solution containing […] anti-human adiponectin antibody (R&D Systems) which is tagged with HRP, and then washed with PBST five times.
After that, 100 μM fluorescent substrate (Amplex Red (Invitrogen)) containing 1 mM hydrogen peroxide was added to the cellulose membrane, and then they react with each other for 10 minutes. A fluorescent intensity in a synthesis spot was measured in such a manner that an […] wavelength of 595 nm of fluorescence from the fluorescent substrate was measured by a fluorescence imager (GE Healthcare) by exciting, with light of 540 nm, the fluorescent substrate in the synthesis spot. A bond strength of the peptide was worked out from the fluorescent intensity in the synthesis spot.

For experiment [2], the target named is T1, human adiponectin (R&D Systems). Put plainly: adiponectin coated on microplate, 1 mM biotin-tagged peptide, HRP-streptavidin, TMB absorbance at 450 nm. Here is the method:
5 μg/mL adiponectin (R&D Systems) prepared with PBS was dispensed to wells of a 96-well microplate in an amount of 100 μL per well. Then, the peptides were incubated for 1 hour at 37° C. Adiponectin was thus immobilized in the wells. In order to inhibit nonspecific binding, a blocking solution (Protein-Free Blocking Buffer, PIERCE) was then added to the wells in an amount of 300 μL per well. Then, the peptides were incubated for 2 hours at room temperature. Then, the wells were washed three times with PBST (PBS containing 0.1% (v/v) Tween 20). Then, 1 mM biotin-tagged peptide was added to the wells in an amount of 100 μL per well. Then, the peptides were incubated for 1 hour at room temperature. Then, the wells were washed with PBST again.
Then, HRP-tagged streptavidin (R&D Systems) diluted with 200 parts of the blocking solution (Protein-Free Blocking Buffer, PIERCE) was added to the well in an amount of 100 μL per well. Then, the streptavidin was incubated for 1 hour at room temperature. Then, the wells were washed with PBST. Then, TMB (tetramethylbenzidine) was added to the wells in an amount of 100 μL per well so that they react with each other for 20 minutes. Then, the reaction was stopped by adding 1 M of HCL to the wells in an amount of 100 μL per well. Then, an absorbance at 450 nm was measured by use of a microplate reader (Bio-Rad).

B1: peptide consisting of the amino-acid sequence represented by SEQ ID NO: 10 (peptide)
peptide: RQTRAGVF-{PEG (amino-terminated)-cellulose membrane}
modifications: reading uncertain
notes: Spot-synthesised on a cellulose membrane
On to B1, for which, in experiment [1], the binding result was “binds”.

B2: peptide consisting of the amino-acid sequence represented by SEQ ID NO: 8 (peptide)
peptide: MGSFVPW-{PEG (amino-terminated)-cellulose membrane}
modifications: reading uncertain
notes: Spot-synthesised on a cellulose membrane; also called MGSFVPW
On to B2, for which, in experiment [1], the binding result was “binds”.

B3: peptide having the amino-acid sequence represented by SEQ ID NO: 18 (peptide)
peptide: MGSFVPY-{PEG (amino-terminated)-cellulose membrane}
modifications: reading uncertain
notes: also called MGSFVPY
B3: the binding result in experiment [1] is reported as “binds”.

B4: peptide consisting of the amino-acid sequence represented by SEQ ID NO: 5 (peptide)
peptide: ILTMLRPNMYF-{PEG (amino-terminated)-cellulose membrane}
modifications: reading uncertain
notes: as for B1
For the molecule B4, in experiment [1], the binding result is recorded as “binds”.

B5: peptide consisting of the amino-acid sequence represented by SEQ ID NO: 12 (peptide)
peptide: FLGLGLSGVVPT-{PEG (amino-terminated)-cellulose membrane}
modifications: reading uncertain
notes: as for B1
Regarding B5, the binding result in experiment [1] was “binds”.

B6: biotin-tagged peptide: SEQ ID NO: 14 with lysine added to the C-terminal, biotin on the lysine side chain (peptide)
peptide: ITPIHWVKK(Biotin)
For B6, in experiment [2], the binding result is “binds”.

B7: peptide consisting of the amino-acid sequence represented by SEQ ID NO: 9 (peptide)
peptide: RFATPKHR-{PEG (amino-terminated)-cellulose membrane}
modifications: reading uncertain
notes: as for B1
In the case of B7, the binding result in experiment [1] was “binds”.

B8: peptide having the amino-acid sequence represented by SEQ ID NO: 19 (peptide)
peptide: KFATPKHR
With B8, the binding result in experiment [1] is recorded as “binds”.

B9: peptide consisting of the amino-acid sequence represented by SEQ ID NO: 2 (peptide)
peptide: LTLPLQAHHAME-{PEG (amino-terminated)-cellulose membrane}
modifications: reading uncertain
notes: as for B1
Regarding B9, the binding result in experiment [1] is reported as “binds”.

B10: peptide consisting of the amino-acid sequence represented by SEQ ID NO: 1 (peptide)
peptide: VRVLTLPL-{PEG (amino-terminated)-cellulose membrane}
modifications: reading uncertain
notes: as for B1
On to B10, for which, in experiment [1], the binding result is “binds”.

B11: peptide consisting of the amino-acid sequence represented by SEQ ID NO: 14 (peptide)
peptide: ITPIHWVK-{PEG (amino-terminated)-cellulose membrane}
modifications: reading uncertain
notes: as for B1
Consider B11, for which the binding result in experiment [1] is recorded as “binds”.

B12: peptide consisting of the amino-acid sequence represented by SEQ ID NO: 6 (peptide)
peptide: APLQEKVVFG-{PEG (amino-terminated)-cellulose membrane}
modifications: reading uncertain
notes: as for B1
On to B12, for which, in experiment [1], the binding result is given as “binds”.

B13: peptide consisting of the amino-acid sequence represented by SEQ ID NO: 4 (peptide)
peptide: FRIHTETG-{PEG (amino-terminated)-cellulose membrane}
modifications: reading uncertain
notes: as for B1
With B13, the binding result in experiment [1] was “binds”.

B14: peptide consisting of the amino-acid sequence represented by SEQ ID NO: 3 (peptide)
peptide: LLHGHRPPMP-{PEG (amino-terminated)-cellulose membrane}
modifications: reading uncertain
notes: as for B1
In the case of B14, the binding result in experiment [1] is listed as “binds”.

B15: peptide consisting of the amino-acid sequence represented by SEQ ID NO: 7 (peptide)
peptide: IALLIMGS-{PEG (amino-terminated)-cellulose membrane}
modifications: reading uncertain
notes: as for B1
As for B15, the binding result in experiment [1] was “binds”.

B16: biotin-tagged peptide: SEQ ID NO: 15 with lysine added to the C-terminal, biotin on the lysine side chain (peptide)
peptide: ILLPLRINK(Biotin)
As for B16, the binding result in experiment [2] is recorded as “binds”.

B17: peptide consisting of the amino-acid sequence represented by SEQ ID NO: 15 (peptide)
peptide: ILLPLRIN-{PEG (amino-terminated)-cellulose membrane}
modifications: reading uncertain
notes: Spot-synthesised on a cellulose membrane; also called ILLPLRIN
In the case of B17, the binding result in experiment [1] is “binds”.

B18: peptide consisting of the amino-acid sequence represented by SEQ ID NO: 13 (peptide)
peptide: GFVKATTV-{PEG (amino-terminated)-cellulose membrane}
modifications: reading uncertain
notes: as for B1
As for B18, in experiment [1], the binding result was “binds”.

B19: peptide consisting of the amino-acid sequence represented by SEQ ID NO: 11 (peptide)
peptide: MHFTIAEG-{PEG (amino-terminated)-cellulose membrane}
modifications: reading uncertain
notes: as for B1
Consider B19, for which the binding result in experiment [1] was “binds”.
